Assay results from the supplement of paper PMC10126150.
± gives the standard deviation of the averaged measurements.

Tested on: ATP
Experiment: switch fluorescence ratio, 500 uM ATP over buffer (Cy3 cluster intensity, sum of 5 cycles each) (fold (ratio)); higher = stronger signal-on switching upon ATP binding; sequences stand for … in TCGTCGGCAGCGTCAGATGTGTATAAGAGACAGTTTTTTTTTTTTTTTTTTTTTTTTT…TC
Settings: aptamer strand: ATP DNA aptamer (quencher-CACCTGGGGGAGTATTGCGGAGGAAGG + anchor), 100 nM annealed; ATP concentration: 500 uM
Method in brief: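 The fluorescence ratio divides summed target-cycle Cy3 intensity by summed buffer-cycle Cy3 intensity for each cluster and is averaged per switch-domain sequence. Cy3-labelled switching-strand clusters on a modified Illumina MiSeq flow-cell were annealed to 100 nM quencher-labelled ATP aptamer, then imaged in selection buffer and again after 15 min with 500 uM ATP at 22 °C. Five such cycles were run, with NaOH stripping and re-annealing between them, and clusters outside 100-1000 RFU were excluded.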
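Note: ATP exposure 15 min at 22 °C before imaging.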

Sequence | switch fluorescence ratio
ACTATCGAAA | 1.09 ± 0.03
AGGGTTTAGC | 1.02 ± 0.032
TGCACTTTTA | 1.01 ± 0.02
GATTCCGAGC | 1.44 ± 0.53
TTTAGCCATT | 0.992 ± 0.012
GCAGAGGGGG | 1.04 ± 0.029
GGGGGAGGCA | 0.966 ± 0.032
ACAGTTATTC | 1.02 ± 0.048
ACTAGGGTCT | 1 ± 0.081
ACCCTGGACA | 1.01 ± 0.019
TTAAAAATAC | 1.06 ± 0.025
TTGTGGTTGC | 1.02 ± 0.013
CGGGATTAGC | 0.983 ± 0.022
TGACGCAGGT | 1.38 ± 0.04
CACGAAGGTG | 1.16 ± 0.032
TTTATGGCAT | 1.02 ± 0.027
TTCGAGCCGA | 1.029 ± 0.0064
TCCGGAGGAC | 1.86 ± 0.03
TTGTTAGTAT | 0.996 ± 0.021
AGACGTGCAG | 1.022 ± 0.006
GAGTGCGACG | 1.08 ± 0.078
GGGATAACAG | 1.04 ± 0.011
TTCAAAGGGG | 1.09 ± 0.24
CACGAGGGGA | 1.02 ± 0.057
TTTAAAGCCC | 1.01 ± 0.043

Sequence | switch fluorescence ratio
CTTGGGTATA | 1.25 ± 0.29
GGGTGCGGAG | 0.956 ± 0.035
CATCGGAGGA | 1.02 ± 0.025
GGGACGGAAC | 1.12 ± 0.03
CTGGTTTTCA | 0.988 ± 0.024
GCTGGGATAG | 1.01 ± 0.019
CTGCATGGGG | 1.062 ± 0.0025
TGTGGGGGAA | 1.2 ± 0.31
GGCCGTTGGG | 0.965 ± 0.016
AAGGGAAATT | 0.983 ± 0.025
CGGTGTACGC | 1.061 ± 0.0034
CACGCTTTTT | 1.15 ± 0.23
TAAGCTGCCA | 1.02 ± 0.015
TTCCTTTTAC | 1.16 ± 0.008
GATGGCGGGC | 1.01 ± 0.013
AAGCATAGTT | 0.993 ± 0.011
TTAGGTCGGT | 1.01 ± 0.0094
TTTACTTACG | 1.22 ± 0.18
CGAGTAGTAG | 1.03 ± 0.059
TAATGAGTTT | 1.006 ± 0.0016
TTTGCTGGGA | 0.9812 ± 0.0098
GACGTTCGGC | 0.991 ± 0.026
TAAAGCAGGG | 1.01 ± 0.023
AATGTCGGGC | 1.02 ± 0.022
ATTGAGAAGT | 0.996 ± 0.031

Sequence | switch fluorescence ratio
TAGGGCGCGT | 0.9947 ± 0.0094
GTTTGGCCTT | 1.04 ± 0.012
GCATGCGCTC | 1.05 ± 0.052
AACAAAGAGA | 1.02 ± 0.026
TTTTATTTGG | 0.983 ± 0.018
ATCAGTTGTT | 1.0008 ± 0.00044
CATCGATTGC | 1.03 ± 0.013
TTGAAGGGTT | 0.9978 ± 0.0033
TGGCGGGGTA | 1.02 ± 0.034
GGCTTTGAAG | 0.9951 ± 0.0023
ACGATAGGGC | 1.06 ± 0.046
GGGCATGAAG | 1.016 ± 0.0066
CCAAGTGGGA | 0.985 ± 0.01
TGGCTTGGTA | 1 ± 0.02
TGGTTATCTT | 0.969 ± 0.011
AAGGCTAAAA | 1.016 ± 0.0059
CGATACGTGG | 1.02 ± 0.042
AGGACCAGCA | 1.024 ± 0.0075
GGGGCTTGCA | 1.02 ± 0.019
TGGTGGCCCT | 1.01 ± 0.06
GTCGTTTGGG | 0.991 ± 0.027
TTGGTAGTCA | 0.992 ± 0.037
GAAAAATTTT | 1.02 ± 0.026
GGGGAATAGT | 1.26 ± 0.32
GCGAATTAGA | 1 ± 0.034

Sequence | switch fluorescence ratio
GGCAGACTTC | 1.02 ± 0.041
GGAGAGTGGT | 1.02 ± 0.023
AGGGAAAGTG | 0.971 ± 0.02
CTCCGTTTTT | 2.88 ± 0.62
TGATAGTCCT | 1.03 ± 0.013
TTGACGGGGA | 1.12 ± 0.17
GCTGTTAGCA | 1.02 ± 0.034
TTCGGGATTG | 0.997 ± 0.024
TGGGTTATGA | 0.9941 ± 0.0084
TTTAGAGAGA | 0.975 ± 0.015
GCGTTGTGAA | 0.9835 ± 0.0057
TGGGGGCTAC | 1 ± 0.01
ATAGTAGGTC | 1.048 ± 0.0015
TTTCTTTAAG | 0.985 ± 0.04
CACTAGACGG | 1.45 ± 0.064
CCTGGCTTGA | 0.996 ± 0.016
AGATTGTCTC | 0.9573 ± 0.0063
GGTTCAGGGG | 2.26 ± 1.8
CAGGGGGTCC | 1.01 ± 0.022
TTTCACTTTT | 0.991 ± 0.032
CGTAAATTAT | 0.993 ± 0.029
TACTGAATGG | 0.997 ± 0.0051
CATTAGTAGC | 1.02 ± 0.05
ATGGAAAAGG | 0.9916 ± 0.0094
CCGGGAGGTA | 0.991 ± 0.021

Sequence | switch fluorescence ratio
AGGGGCAGAG | 1.06 ± 0.092
AAAAACATTT | 0.998 ± 0.051
CAGTCTGTGT | 0.9921 ± 0.0075
AGCTAGGGGG | 0.989 ± 0.022
TTGAGGAGGG | 0.962 ± 0.11
TAATATGATT | 0.999 ± 0.029
GAAATTCCGC | 1.27 ± 0.088
TGTTTGGGTA | 1 ± 0.07
GAATTAAAGT | 0.9823 ± 0.0041
AGGGTAGCGA | 1.03 ± 0.017
ACTCGATGTG | 0.989 ± 0.045
TAAGAAGATG | 0.9808 ± 0.0014
TAGTGGGTTA | 0.974 ± 0.023
GTGAGGTGTG | 1.001 ± 0.009
AGAAGGCTGC | 0.978 ± 0.0071
AGGGGGGGCC | 0.992 ± 0.038
TGAGGGGGTT | 0.997 ± 0.049
TCTGAAATTC | 1.15 ± 0.055
GATTAATTTT | 1.02 ± 0.043
TGGTTTATTT | 0.976 ± 0.01
GATTACAGGG | 0.957 ± 0.038
TTATTTAATT | 0.998 ± 0.027
CGTTGTAAGG | 1.01 ± 0.027
GGGCTGGGGA | 1.01 ± 0.033
TAAGCCGCGT | 1.008 ± 0.0083

Sequence | switch fluorescence ratio
TAGCTAAATT | 0.99 ± 0.012
CCAGGTAGAG | 1.32 ± 0.13
TCGGAGGTCA | 0.956 ± 0.03
TTTAAGTCTA | 0.992 ± 0.039
TAGGATGAAG | 1.03 ± 0.011
TTTTCCGTAT | 1.18 ± 0.025
AATGGTGAGG | 1.05 ± 0.051
AAGACTAGTT | 0.999 ± 0.03
CTATGGGCCG | 0.972 ± 0.028
CGAGTAAAAT | 1.08 ± 0.1
ATTCGTTGTT | 0.997 ± 0.01
AGCGAGAGAC | 1.102 ± 0.0025
TAAGGGGAAG | 1.04 ± 0.015
GAAGGTTATT | 0.9939 ± 0.0047
GCAAACTCTG | 1.12 ± 0.15
AACAGGAAAT | 0.9596 ± 0.0032
GGCTGGGGCT | 0.973 ± 0.026
TGGGGAGCAT | 1.01 ± 0.044
ACGTTGCTTA | 1.007 ± 0.0052
TTTCTGGCTG | 1.025 ± 0.0043
GCTGCGCCGT | 1.004 ± 0.0092
ACGGGGAATG | 1.01 ± 0.056
GACCAAGGGT | 0.978 ± 0.012
TGATCTGGGG | 1.01 ± 0.033
GGCAGTTTTG | 1.01 ± 0.0062

Sequence | switch fluorescence ratio
GTGGGGTCTT | 1 ± 0.019
GGGAGGCAGA | 0.989 ± 0.065
TTTGTTGTGT | 1.02 ± 0.025
ATCTGTCAAG | 0.9954 ± 0.0058
GTTTTGGGTA | 1.04 ± 0.041
GAGTCTCTTA | 1 ± 0.027
TTGTTTCTTG | 0.981 ± 0.049
GGAAATCGGG | 0.989 ± 0.027
TATATTGGGA | 0.992 ± 0.022
AAGGTTTCAT | 1 ± 0.031
CAACGGGTGC | 1.75 ± 0.21
GCCGGGGACG | 1.01 ± 0.011
GGTAATGGCA | 1.01 ± 0.039
GAAATGTGAG | 0.9797 ± 0.0045
CGGGGTGCGA | 1.02 ± 0.021
AGTGGCGTTC | 1.01 ± 0.073
ATTTGAGGGA | 1.13 ± 0.2
GTATTATTTA | 1 ± 0.022
TGGGTTATTG | 0.998 ± 0.019
TTGAGGCGGA | 1.04 ± 0.033
GTAGTCTTAG | 0.9943 ± 0.0097
GGGCTATTTA | 1 ± 0.011
TAAACTACAT | 1.006 ± 0.005
TAGCGTAGAA | 0.993 ± 0.046
TGGTCCTATG | 1.01 ± 0.054

Sequence | switch fluorescence ratio
TCTCAGTAGG | 1.02 ± 0.013
AGTCGAAAGC | 1.01 ± 0.059
ATCTTCGGGC | 0.9869 ± 0.0065
GTGGTGCTAG | 0.97206 ± 1.9e-05
TTACTAAGGT | 1.063 ± 0.01
TAAAAAGATT | 0.988 ± 0.019
ACAGCAGGGC | 1.07 ± 0.07
GCTTCGGGCC | 0.991 ± 0.015
AATGCATCTA | 0.989 ± 0.025
GCTTCAGAAA | 1 ± 0.066
TGCGTATTTT | 1.025 ± 0.0031
TACGTTTAAT | 1.04 ± 0.031
ATATTTAGTT | 1.01 ± 0.051
TCGGTAGCAG | 1.092 ± 0.01
CATTTTCTC | 1.038 ± 0.0086
TTAAAAAATG | 1.03 ± 0.042
ACGTTGTACT | 1.14 ± 0.037
CATCAGTTGA | 1.02 ± 0.018
TCCGGGTGTA | 1.14 ± 0.22
CAGCATGGGT | 1.025 ± 0.0034
TCGTTGTGTG | 0.981 ± 0.019
GGTTGGTGCA | 1.02 ± 0.013
TTTAAGAGCG | 1.02 ± 0.013
GTGATACTGG | 1.04 ± 0.014
ATGGGCTTCG | 1.01 ± 0.034
